Reference: paper PMC5432818, “Biochemical characterization of a functional recombinant aryl-alcohol dehydrogenase from Taiwanofungus camphorata” (Botanical Studies, 2014)

System: COc1ccc(C=O)cc1OC
Experiment: purified protein
Assay type: biochemical, Taiwanofungus camphoratus
Conditions: reduction, 0.2 mM NADPH fixed, 25 mM bis-tris-propane/HCl pH 6.0, 25 °C, veratraldehyde 0.1-0.4 mM

Question: How did the Km turn out when “TcAAD (also printed TcADD) (Taiwanofungus camphoratus)” was run?
Answer: Its Km is 250 µM.
